{
  "source": "IntAct's records for PubMed 24805197",
  "parents": {"B1": {"name": "Sarcoplasmic reticulum histidine-rich calcium-binding protein (Homo sapiens), P23327 (parent)", "chain": "MGHHRPWLHASVLWAGVASLLLPPAMTQQLRGDGLGFRNRNNSTGVAGLSEEASAELRHHLHSPRDHPDENKDVSTENGHHFWSHPDREKEDEDVSKEYGHLLPGHRSQDHKVGDEGVSGEEVFAEHGGQARGHRGHGSEDTEDSAEHRHHLPSHRSHSHQDEDEDEVVSSEHHHHILRHGHRGHDGEDDEGEEEEEEEEEEEEASTEYGHQAHRHRGHGSEEDEDVSDGHHHHGPSHRHQGHEEDDDDDDDDDDDDDDDDVSIEYRHQAHRHQGHGIEEDEDVSDGHHHRDPSHRHRSHEEDDNDDDDVSTEYGHQAHRHQDHRKEEVEAVSGEHHHHVPDHRHQGHRDEEEDEDVSTERWHQGPQHVHHGLVDEEEEEEEITVQFGHYVASHQPRGHKSDEEDFQDEYKTEVPHHHHHRVPREEDEEVSAELGHQAPSHRQSHQDEETGHGQRGSIKEMSHHPPGHTVVKDRSHLRKDDSEEEKEKEEDPGSHEEDDESSEQGEKGTHHGSRDQEDEEDEEEGHGLSLNQEEEEEEDKEEEEEEEDEERREERAEVGAPLSPDHSEEEEEEEEGLEEDEPRFTIIPNPLDRREEAGGASSEEESGEDTGPQDAQEYGNYQPGSLCGYCSFCNRCTECESCHCDEENMGEHCDQCQHCQFCYLCPLVCETVCAPGSYVDYFSSSLYQALADMLETPEP"}},
  "data": [
    {"variants_of": "B1", "settings": "with ryr2_mouse Ryr2, E9Q401", "values": [
      {"variant": "S96A", "effect of a mutation on the interaction": "decreasing interaction strength"}
    ]}
  ]
}
